From patent US6166290A, “Glutathione-S-conjugate transport in plants” (The Trustees of the University of Pennsylvania, priority 1997, dated 2000) come the findings set out here.

Several values for one entry are separate records, joined by “and”; a condition that tells them apart may be missing. Equal values may be shown once.

In general, Km refers to the concentration of substrate that gives half-maximal velocity.

One series relates to DTY165 cells. Nature of the series: Fluorescence microscopy of vacuolar bimane-GS accumulation, DTY165 cells. The settings on record: 100 μM monochlorobimane, 6 hours. The format is cell-based, Saccharomyces cerevisiae. On the procedure:
Cells were grown in YPD medium for 24 hours at 30° C. to an OD600 nm of approximately 1.4, and 100 μl aliquots of the suspensions were transferred to 15 ml volumes of fresh YPD medium containing 100 μM syn-(ClCH2,CH3)-1,5-diazabicyclo-[3.3.0]-[…] (monochlorobimane) (Kosower et al., 1980, J Am. Chem. Soc. 102:4983-4993). After incubation for 6 hours, the cells were pelleted by centrifugation, washed twice with YPD medium lacking monochlorobimane, and viewed without fixation under an Olympus BH-2 fluorescence microscope equipped with a BP-490 UV excitation filter, AFC-0515 barrier filter, and Nomarski optics attachment.

Substrate in series [1]: N[C@@H](CCC(=O)N[C@@H](CSSC[C@H](NC(=O)CC[C@H](N)C(=O)O)C(=O)NCC(=O)O)C(=O)NCC(=O)O)C(=O)O
The series can be described thus: cells, lysate or membranes. The settings on record: other: MgATP-dependent, uncoupler-insensitive; pH 8.0.

Substrate in series [2]: N[C@@H](CCC(=O)N[C@@H](CSc1ccc([N+](=O)[O-])cc1[N+](=O)[O-])C(=O)NCC(=O)O)C(=O)O
Nature of the series: AtMRP1-dependent uptake by membrane vesicles from pYES3-AtMRP1-transformed DTY168 cells. The series is classed as biochemical, Arabidopsis thaliana. As to conditions: other: MgATP-dependent, uncoupler-insensitive; pH 8.0.

`Cc1c(C)n2c(CCl)c(C)c(=O)n2c1=O` [monochlorobimane, syn-(ClCH2,CH3)-1,5-diazabicyclo-[3.3.0]-octa-3,6-dione-2,8-dione]: the “vacuolar fluorescence (bimane-GS)” value in the series with DTY165 cells was “intense punctate fluorescence”.

B1: AtMRP1 (Arabidopsis thaliana) (protein)
chain: MGFEPLDWYCKPVPNGVWTKTVDYAFGAYTPCAIDSFVLGISHLVLLILCLYRLWLITKDHKVDKFCLRSKWFSYFLALLAAYATAEPLFRLVMRISVLDLDGAGFPPYEAFMLVLEAFAWGSALVMTVVETKTYIHELRWYVRFAVIYALVGDMVLLNLVLSVKEYYGSFKLYLYISEVAVQVAFGTLLFVYFPNLDPYPGYTPVGTENSEDYEYEELPGGENICPERHANLFDSIFFSWLNPLMTLGSKRPLTEKDVWHLDTWDKTETLMRSFQKSWDKELEKPKPWLLRALNNSLGGRFWWGGFWKIGNDCSQFVGPLLLNELLKSMQLNEPAWIGYIYAISIFVGVVLGVLCEAQYFQNVMRVGYRLRSALIAAVFRKSLRLTNEGRKKFQTGKITNLMTTDAESLQQICQSLHTMWSAPFRIIVALVLLYQQLGVASIIGALFLVLMFPIQTVIISKTQKLTKEGLQRTDKRIGLMNEVLAAMDTVKCYAWENSFQSKVQTVRDDELSWFRKAQLLSAFNMFILNSIPVLVTVVSFGVFSLLGGDLTPARAFTSLSLFSVLRFPLFMLPNIITQMVNANVSLNRLEEVLSTEERVLLPNPPIEPGQPAISIRNGYFSWDSKADRPTLSNINLDIPLGSLVAVVGSTGEGKTSLISAMLGELPARSDATVTLRGSVAYVPQVSWIFNATVRDNILFGAPFDQEKYERVIDVTALQHDLELLPGGDLTEIGERGVNISGGQKQRVSMARAVYSNSDVCILDDPLSALDAHVGQQVFEKCIKRELGQTTRVLVTNQLHFLSQVDKILLVHEGTVKEEGTYEELCHSGPLFQRLMENAGKVEDYSEENGEAEVDQTSVKPVENGNANNLQKDGIETKNSKEGNSVLVKREERETGVVSWKVLERYQNALGGAWVVMMLVICYVLTQVFRVSSSTWLSEWTDSGTPKTHGPLFYNIVYALLSFGQVSVTLINSYWLIMSSLYAAKKMHDAMLGSILRAPMVFFQTNPLGRIINRFAKDMGDIDRTVAVFVNMFMGSIAQLLSTVILIGIVSTLSLWAIMPLLVVFYGAYLYYQNTSREIKRMDSTTRSPVYAQFGEALNGLSSIRAYKAYDRMAEINGRSMDNNIRFTLVNMAANRWLGIRLEVLGGLMVWLTASLAVMQNGKAANQQAYASTMGLLLSYALSITSSLTAVLRLASLAENSLNSVERVGNYIEIPSEAPLVIENNRPPPGWPSSGSIKFEDVVLRYRPELPPVLHGVSFLISPMDKVGIVGRTGAGKSSLLNALFRIVELEKGRILIDECDIGRFGLMDLRKVLGIIPQAPVLFSGTVRFNLDPFSEHNDADLWESLERAHLKDTIRRNPLGLDAEVTEAGENFSVGQRQLLSLARALLRRSKILVLDEATAAVDVRTDVLIQKTIREEFKSCTMLIIAHRLNTIIDCDKVLVLDSGKVQEFSSPENLLSNGESSFSKMVQSTGTANAEYLRSITLENKRTREANGDDSQPLEGQRKWQASSRWAAAAQFALAVSLTSSHNDLQSLEIEDDNSILKKTKDAVVTLRSVLEGKHDKEIEDSLNQSDISRERWWPSLYKMVEGLAVMSRLARNRMQHPDYNLEGKSFDWDNVEM
notes: S. cerevisiae DTY168 (ycf1 null) vacuolar-enriched membrane vesicles
Consider B1, for which the Michaelis-Menten constant (Km) in series [1] is 219 µM; in series [2] it was 48.7 ± 15.4 µM and 73.8 µM and 49.7 ± 15.4 µM.
